Assay results from US20200062844A1.

Key:
[1] = molecular target: human FcεR1α expressed on cells (human) (UniProt P12319); assay: flow cytometry, 70 nM antibody on HEK293/hFcεR1α/hFcεR1β/hFcεR1γ cells, No IgE
[2] = molecular target: human CD3 expressed in Jurkat cells (human) (UniProt P07766); assay: cell-based or functional assay
[3] = molecular target: monkey (cynomolgus) FcεR1α expressed on cells (cynomolgus); assay: flow cytometry, 70 nM antibody on HEK293/mfFcεR1α/hFcεR1β/hFcεR1γ cells pre-incubated with 70 nM human IgE
[4] = molecular target: human FcεR1α expressed on cells (human) (UniProt P12319); assay: flow cytometry, 70 nM antibody on HEK293/hFcεR1α/hFcεR1β/hFcεR1γ cells pre-incubated with 70 nM human IgE
[5] = molecular target: monkey (cynomolgus) FcεR1α expressed on cells (cynomolgus); assay: flow cytometry, 70 nM antibody on HEK293/mfFcεR1α/hFcεR1β/hFcεR1γ cells, No IgE
[6] = molecular target: human CD3 expressed in Jurkat cells (human) (UniProt P07766); assay: flow cytometry, 70 nM antibody on Jurkat/NFAT-luc cells, No IgE
[7] = molecular target: mfFcεR1α.MMH (cynomolgus (Macaca fascicularis)); assay: SPR (Biacore 8k), antibody captured on anti-human Fc, mfFcεR1α.MMH injected, 37°C
Chain of mfFcεR1α.MMH (cynomolgus (Macaca fascicularis)) (chain, as listed by the source limits assumed): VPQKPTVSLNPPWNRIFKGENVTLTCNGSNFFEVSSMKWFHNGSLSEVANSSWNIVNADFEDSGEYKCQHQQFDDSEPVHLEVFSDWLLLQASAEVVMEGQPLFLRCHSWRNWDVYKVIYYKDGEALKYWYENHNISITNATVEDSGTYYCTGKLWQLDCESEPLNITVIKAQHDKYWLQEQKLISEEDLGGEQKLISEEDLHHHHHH

[8] = molecular target: mfFcεR1α.MMH (cynomolgus (Macaca fascicularis)); assay: SPR (Biacore 8k), antibody captured on anti-human Fc, mfFcεR1α.MMH injected, 25°C
hFcεR1α.MMH (human) [9] = assay: SPR (Biacore 8k), antibody captured on anti-human Fc, hFcεR1α.MMH injected, 37°C
Chain of hFcεR1α.MMH (human) (chain, as listed by the source limits assumed): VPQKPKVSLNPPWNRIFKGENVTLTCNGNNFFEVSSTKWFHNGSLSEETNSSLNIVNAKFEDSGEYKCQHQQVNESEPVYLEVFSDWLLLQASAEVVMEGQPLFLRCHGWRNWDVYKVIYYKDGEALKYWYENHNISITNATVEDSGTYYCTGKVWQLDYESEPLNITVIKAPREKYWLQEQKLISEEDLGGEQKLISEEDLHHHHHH

hFcεR1α.MMH (human) [10] = assay: SPR (Biacore 8k), antibody captured on anti-human Fc, hFcεR1α.MMH injected, 25°C

Chain of human FcεR1α expressed on cells (human) (P12319 26-257): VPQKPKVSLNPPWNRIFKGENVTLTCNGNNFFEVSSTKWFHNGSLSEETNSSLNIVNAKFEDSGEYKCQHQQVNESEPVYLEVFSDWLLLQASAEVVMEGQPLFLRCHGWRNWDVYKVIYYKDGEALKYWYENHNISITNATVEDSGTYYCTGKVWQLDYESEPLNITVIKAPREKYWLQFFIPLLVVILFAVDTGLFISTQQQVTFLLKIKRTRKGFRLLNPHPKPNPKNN
Chain of human CD3 expressed in Jurkat cells (human) (P07766 23-207 limits assumed, chain 1 of 4): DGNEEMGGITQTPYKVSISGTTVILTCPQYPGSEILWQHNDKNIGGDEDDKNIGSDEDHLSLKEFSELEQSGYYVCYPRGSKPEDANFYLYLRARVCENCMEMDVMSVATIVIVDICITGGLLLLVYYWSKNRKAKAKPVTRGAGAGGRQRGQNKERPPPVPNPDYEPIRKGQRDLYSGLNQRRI
Chain of human CD3 expressed in Jurkat cells (human) (chain, as listed by the source limits assumed, chain 2 of 4): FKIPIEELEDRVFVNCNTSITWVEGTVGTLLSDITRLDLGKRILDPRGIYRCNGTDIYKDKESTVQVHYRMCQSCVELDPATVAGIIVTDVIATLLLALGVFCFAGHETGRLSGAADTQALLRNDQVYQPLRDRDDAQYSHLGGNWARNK
Chain of human CD3 expressed in Jurkat cells (human) (chain, as listed by the source limits assumed, chain 3 of 4): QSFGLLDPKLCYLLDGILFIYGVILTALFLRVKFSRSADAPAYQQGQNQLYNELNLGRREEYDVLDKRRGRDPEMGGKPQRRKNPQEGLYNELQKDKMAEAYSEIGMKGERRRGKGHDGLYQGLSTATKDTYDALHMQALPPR
Chain of human CD3 expressed in Jurkat cells (human) (chain, as listed by the source limits assumed, chain 4 of 4): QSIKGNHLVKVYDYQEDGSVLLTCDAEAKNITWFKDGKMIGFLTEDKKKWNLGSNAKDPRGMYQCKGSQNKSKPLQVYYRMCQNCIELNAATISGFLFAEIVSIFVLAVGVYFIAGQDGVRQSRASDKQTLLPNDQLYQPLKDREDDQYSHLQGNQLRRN

Substance	Binding Ratio (MFI of Treated/MFI of Unstained) [1]	Fold Activation, Jurkat/NFAT-luc with HEK293/hFcεR1α/hFcεR1β/hFcεR1γ cells, 10 nM IgE [2]	Fold Activation, Jurkat/NFAT-luc with HEK293/hFcεR1α/hFcεR1β/hFcεR1γ cells, No IgE [2]	Binding Ratio (MFI of Treated/MFI of Unstained) [3]	Binding Ratio (MFI of Treated/MFI of Unstained) [4]	Binding Ratio (MFI of Treated/MFI of Unstained) [5]	Binding Ratio (MFI of Treated/MFI of Unstained) [6]	600 nM mfFceR1a.MMH Bound (RU) [7]	600 nM mfFceR1a.MMH Bound (RU) [8]	600 nM hFcεR1α.MMH Bound (RU) (hFcεR1α.MMH (human) [9])	600 nM hFcεR1α.MMH Bound (RU) (hFcεR1α.MMH (human) [10])
Human IgG4 Control (antibody)	1	1 fold	1 fold	1	1	1	1				
Human IgG4 Stealth Control (antibody)	1	1 fold	1 fold	1	1	1	2				
Isotype Control mAb (antibody)								-9 RU	-9 RU	-2 RU	-5 RU
